Measured values taken from US20260297190 (published 2026).
Positions count from the first letter of the chain named.

B1: DARPin protein #4 (designed binder)
chain: DLGKKLLQAAARGQDDEVRELLKAGADVNAKDLKGRTPLHLAAATGHPEIVEVLLKAGADVNAKDQFGYTPLHIAAAWGHLEIVEVLLKAGADVNAQDQKGETPADLAAKEGHEDIAEVLQKAA
B2: DARPin protein #2 (designed binder)
chain: DLGIKLLHAAFQGQDDEVRILLAAGADVNAKDKVGRTPLHRAAQWGHLEIVEVLLKAGADVNAKDHVGWTPLHLAAWRGHLEIVEVLLKAGADVNAQDASGFTPADLAARQGHEDIAEVLQKAA
B3: DARPin protein #3 (designed binder)
chain: DLGRKLLQAAARGQDDEVRELLKAGADVNAKDLHGRTPLHLAAAIGHLEIVEVLLKAGADVNAKDFLGWTPLHIAAFRGHLEIVEVLLKAGADVNAQDEAGETPADLAAQEGHEDIAEVLQKAA
B4: DARPin protein #6 (designed binder)
chain: B3 chain with F66V, L67F, W69Y, A100R, Q110E, E111A
B5: DARPin protein #5 (designed binder)
chain: DLGRKLLQAAARGQDDEVRELLKAGADVNAKDLLGRTPLHLAASIGHLEIVEVLLKAGADVNAKDERGFTPLHIAALQGHLEIVEVLLKAGADVNAQDLEGRTPADLAAEEGHEDIAEVLQKAA
B6: DARPin protein #8 (designed binder)
chain: B5 chain with R4K, E66S, I74L, L77I, Q78I, E100K, R102L, E110A
B7: DARPin protein #7 (designed binder)
chain: B5 chain with R4E, Q8K, F69Y, L77I, Q78V, L99A, E100R, R102A, E110R
B8: DARPin protein #1 (designed binder)
chain: ALGKKLLQAAARGQDDEVRELLKAGADVNAKDLIGRTPLHLAASIGHLEIVEVLLKAGADVNAKDSRGWTPLHIAAVSGHLEIVEVLLKAGADVNAQDRAGATPADLAAAEGNEDIAEVLQKAA

How the values were obtained:
human CD47-Fc = human CD47-Fc (human); experiment: SPR
Chain of human CD47-Fc (human) (chain, as listed by the source): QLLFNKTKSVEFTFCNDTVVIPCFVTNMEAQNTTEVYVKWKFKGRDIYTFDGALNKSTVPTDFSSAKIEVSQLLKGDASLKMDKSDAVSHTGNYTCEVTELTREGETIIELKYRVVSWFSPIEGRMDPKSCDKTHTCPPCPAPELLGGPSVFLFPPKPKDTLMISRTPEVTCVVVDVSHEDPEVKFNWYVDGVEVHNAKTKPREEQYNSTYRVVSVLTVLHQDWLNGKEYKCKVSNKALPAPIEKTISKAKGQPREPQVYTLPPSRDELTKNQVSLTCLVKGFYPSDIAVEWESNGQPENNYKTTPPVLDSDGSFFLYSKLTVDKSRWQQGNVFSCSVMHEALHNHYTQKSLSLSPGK

CD47 on Raji cells = CD47 on Raji cells (human, UniProt Q08722); experiment: FACS, Raji cells, 4C
Chain of CD47 on Raji cells (Q08722 19-323): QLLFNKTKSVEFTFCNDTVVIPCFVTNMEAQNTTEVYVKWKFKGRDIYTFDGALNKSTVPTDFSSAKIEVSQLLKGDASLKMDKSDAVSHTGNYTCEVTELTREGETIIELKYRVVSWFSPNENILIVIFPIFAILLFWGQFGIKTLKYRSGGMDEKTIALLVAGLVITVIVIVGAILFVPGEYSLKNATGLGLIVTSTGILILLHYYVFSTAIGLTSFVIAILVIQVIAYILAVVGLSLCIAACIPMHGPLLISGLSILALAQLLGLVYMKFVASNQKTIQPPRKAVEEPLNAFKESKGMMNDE

| Binder | Kd (human CD47-Fc) [nM] | EC50 (CD47 on Raji cells) [nM] |
| --- | --- | --- |
| B1 | 0.244 | 74.7 |
| B2 | 0.813 | 20.9 |
| B3 | 0.562 | 58.4 |
| B4 | 0.24 | 48 |
| B5 | 0.552 | 45.5 |
| B6 | 0.102 | 17.2 |
| B7 | 0.352 | 28.5 |
| B8 | 0.328 | 40.4 |
